Measurements reported in US6495144B2, “EBNA2 peptides and methods of using same” (Johns Hopkins University School of Medicine, priority 1996, dated 2002).
Residue numbers refer to the chain shown, from its start.

B1: SR360VD (PKC): EBNA2 with mutation of the putative PKC phosphorylation site (protein)
chain: MPTFYLALHGGQTYHLIVDTDSLGNPSLSVIPSNPYQEQLSDTPLIPLTIFVGENTGVPPPLPPPPPPPPPPPPPPPPPPPPPPPPPPSPPPPPPPPPPPQRRDAWTQEPSPLDRDPLGYDVGHGPLASAMRMLWMANYIVRQSRGDRGLILPQGPQTAPQARLVQPHVPPLRPTAPTILSPLSQPRLTPPQPLMMPPRPTPPTPLPPATLTVPPRPTRPTTLPPTPLLTVLQRPTELQPTPSPPRMHLPVLHVPDQSMHPLTHQSTPNDPDSPEPRSPTVFYNIPPMPLPPSQLPPPAAPAQPPPGVINDQQLHHLPSGPPWWPPICDPPQPSKTQGQSRGQSRGRGRGRGRGRGKGKVDDKQRKPGGPWRPEPNTSSPSMPELSPVLGLHQGQGAGDSPTPGPSNAAPVCRNSHTATPNVSPIHEPESHNSPEAPILFPDDWYPPSIDPADLDESWDYIFETTESPSSDEDYVEGPSKRPRPSIQ
B2: LGL389SRT (CR7): EBNA2 with LGL at position 389 in CR7 changed to SRT (protein)
chain: B1 chain with V360S, D361R, L389S, G390R, L391T

Assays:
CBF1/RBPJk = target: T1, CBF1/RBPJk (Homo sapiens, UniProt Q06330); test: EMSA of EBNA2/CBF1 complex formation with in vitro translated EBNA2 peptides; assay type: binding; conditions: for effect in reducing the amounts of EBNA2/CBF1 complex formed: fold, in words
T1 construct: EMSA using CBF1 purified by heparin-agarose chromatography; endogenous in cells; host or cells: CA46 cells (fractionated extract, heparin-agarose)
Source text: FIG. 3 is an autoradiogram that depicts the effect of mutations on the ability of an EBNA2 (i.e., E2) peptide comprising amino acids 252-425 to interact with CBF1/RBPJk: probe (lane 1); E2 only (lane 2); lysate (lane 3); CBF1 (lane 4); CBF1 and lysate (lane 5); CBF1 and E2 252-425 (lane 6); CBF1 and del376-425 (lane 7); CBF1 and del343-425 (lane 8); CBF1 and del252-366 (lane 9); CBF1 and del252-309, del398-425 (lane 10); CBF1 and del344-357 (lane 11); CBF1 and II307SR (CR5) (lane 12); CBF1 and GP320SR (CR6) (lane 13); CBF1 and WW323SR (CR6) (lane 14); CBF1 and PI326SR (CR6) (lane 15); CBF1 and SR360VD (PKC) (lane 16); and CBF1 and LGL389SRT (CR7) (lane 17). Results of an EMSA using CBF1 purified by heparin-agarose chromatography and a 30-base pair oligonucleotide probe containing the Cp CBF1 binding site (Ling et al. (1993a), supra) are shown. The wild-type EBNA2 and mutant EBNA2 peptides spanning amino acids 252-425 were in vitro transcribed and translated, and equimolar amounts were added to the binding reactions. Addition of unprogrammed reticulocyte lysate to the CBF1 extract (+lysate) produced a minor bandshift that migrated in the range of the E2/CBF1 complex. The EBNA2/CBF1 complexes (i.e., E2/CBF1 complexes) vary in mobility depending on the size of the added EBNA2 peptide.
FIG. 6 is an EMSA that compares the ability of type A EBNA2 (i.e., EBNA2 comprising amino acids 252-425) and the homologous domains of type B (i.e., EBNA2 comprising amino acids 216-392) and HVP EBNA2 (i.e., HBP EBNA2 comprising amino acids 288-470) to form complexes with CBF1/RBPJk. The EBNA2 peptides and CBF1/RPBPJk were prepared by in vitro transcription and translation. EBNA2 peptides were added with two-fold increases in amount (black triangles) to a binding mixture containing a constant amount of CBF1/RBPJk and a 30-base pair Cp CBF1 binding site probe. Symbols: P, probe only; R, reticulolysate.
The relative positions of the various functional domains the EBNA2 protein are depicted in FIG. 1. To define the amino acids required for interaction with CBF1, various synthetic peptides comprising the promoter targeting domain (i.e., the CBF1/RBPJk interaction domain) were constructed. The truncated and mutated peptides diagrammed in FIG. 2 were synthesized by in vitro transcription-translation, and were tested for their ability to form complexes with CBF1 that could be detected in an electrophoretic mobility shift assay (EMSA) (Ling et al., J. Virol., 69, 1944-1950 (1995)). The expressed peptides were tested using a fractionated extract of EBV negative lymphoblastoid CA46 cells (American Type Culture Collection, Rockville, Md.). The peptides were labeled with ^35S-methionine, and their integrity was confirmed by sodium dodecylsulfate sulfate-polyacrylamide gel electrophoresis (SDS-PAGE). To ensure that equal amounts of the EBNA2 peptides were added to each binding reaction mixture, the SDS-PAGE bands were quantitated using a Molecular Dynamics Phosphorimager, and the volume of the samples was adjusted on the basis of peptide size and the number of methionine residues.

[1] = system: EBV latency C promoter (Cp-CAT); test: Cp-CAT transactivation by EBNA2 effector DNAs cotransfected in DG75 cells; assay type: cell-based, Epstein-Barr virus; conditions: for transactivation of Cp-CAT, dose-response, in words: 0-2.0 μg effector DNA, 2 μg target; for % Transactivation: relative EBNA2 transactivation of the Cp, at DNA concentrations giving 50% acetylation for wild-type EBNA2, mutations in full-length EBNA2
Method: FIGS. 4A-4B are graphs that depict μg effector versus % acetylation for transactivation in DG75 cells of a Cp-CAT construction (Ling et al. (1993b), supra) cotransfected at 2 μg with increasing amounts (i.e., 0, 0.25, 0.5, 1.0 and 2.0 μg) of the indicated EBNA2 effector DNAs. Immunoblot analysis confirmed the equivalent expression of the different EBNA2 effector constructions in transfected cells.
FIGS. 7A-7B are graphs that depict μg effector versus fold-induction for cotransfection assays comparing the ability of type A EBNA2 and type B EBNA2 to transactivate expression from Cp-CAT (FIG. 7A) and CD23p-CAT (FIG. 7B) (Ling et al. (1994), supra) in DG75 cells. The target plasmids were transfected at a constant amount (2 μg) and the effector DNAs at increasing amounts of 0, 0.25, 0.5, 1.0 and 2.0 μg.
In order to correlate the effect of the mutations on CBF1 interaction measured in the in vitro binding assays with the effects on CBF1 interaction in vivo in cultured cells, the point mutations and the glycine-arginine deletion were incorporated into full-length EBNA2 proteins which were used to study EBNA2 targeting in transactivation assays. The mutant proteins were synthesized in equal abundance in transfected cells as assessed by Western blot analysis. FIGS. 4A and 4B compare the ability of wild-type and mutant EBNA2 proteins to transactivate expression from the EBV latency C promoter in a dose-response assay (Ling et al. (1993b), supra).

T1 sequence (Q06330 whole entry): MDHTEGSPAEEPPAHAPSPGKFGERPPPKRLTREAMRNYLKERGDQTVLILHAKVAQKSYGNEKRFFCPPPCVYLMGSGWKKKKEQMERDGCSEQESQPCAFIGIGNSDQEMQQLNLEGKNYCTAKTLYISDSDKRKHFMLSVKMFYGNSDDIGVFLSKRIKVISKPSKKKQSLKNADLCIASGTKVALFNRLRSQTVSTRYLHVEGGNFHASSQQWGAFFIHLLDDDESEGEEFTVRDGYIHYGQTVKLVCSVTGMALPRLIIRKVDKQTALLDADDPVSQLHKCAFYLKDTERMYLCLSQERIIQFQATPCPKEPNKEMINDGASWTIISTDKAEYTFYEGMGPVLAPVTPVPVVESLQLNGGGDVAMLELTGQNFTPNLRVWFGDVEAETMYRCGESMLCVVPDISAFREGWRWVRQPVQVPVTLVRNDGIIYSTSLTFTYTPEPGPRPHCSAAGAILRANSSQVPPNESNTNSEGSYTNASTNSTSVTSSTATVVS

| Molecule | reduction in EBNA2/CBF1 complex formation (CBF1/RBPJk; 252-425 peptide with mutation, relative to wild-type peptide) [%] | effect in reducing the amounts of EBNA2/CBF1 complex formed (CBF1/RBPJk) | transactivation of Cp-CAT, dose-response, in words [1] | % Transactivation [1] [%] |
| --- | --- | --- | --- | --- |
| B1 | 40 | approximately two-fold | did not affect transactivation | 110 |
| B2 |  | approximately two-fold | did not affect transactivation | 100 |
